Data from the supplement of paper PMC10567573.

B1: VDR (parent)
chain: VTLELSQLSMLPHLADLVSYSIQK
B2: DLC1 (parent)
chain: RDAIEALCRRLNTLNKCAVMKLEI

Variants of: B1
Experiment: protein stability index of a GFP-peptide fusion (GPS, HEK-293T) (PSI 1-6); higher = more stable
Conditions: c terminus: a fixed tail appended
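Note: lentivirally expressed fusions sorted by FACS into six bins by GFP to DsRed ratio, PSI derived from sequencing read proportions per bin multiplied by bin number.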

Protein stability index, by site and new letter:
T2: S 3.12, G 1.76, V 3.63, M 2.16, N 3.11, D 1.6, P 1.42, K 2.4, Q 2.22, W 2.48, I 4.5, E 2.22, H 2.06, R 4.52, F 3.02, L 1.75, C 4.12
L3: C 1.99, D 2.09, A 2.21
V1: T 3, R 3.03, G 2.5, S 1.99, M 2.18, L 4.07, F 2.61, W 2.08, N 1.81, K 1.86, Q 2.66, A 1.63, H 2.44, P 1.58, D 2.29, E 1.9, Y 2.2

Variants of: B2
Experiment: as above
Conditions: c terminus: a fixed tail appended

Protein stability index: each site, then its substitutions
R9: V 2.69, S 4.18, Q 4.01, F 2.45, E 4.07, L 1.63, N 3.68, C 3.38, G 1.83, K 1.69, H 3.54, T 2.37, D 2.25, I 1.79
M20: K 1.49, A 1.01, D 1.67, H 3.39, T 2.35, S 2.64, F 3.51, Q 1.45, G 1.85, N 1.88, R 1.27
C8: K 1.84, V 2.73, Q 1.07, L 2.33, N 2.35, W 4.11, H 2.7, S 1.39, F 2.82, I 4.17, T 1.46, M 3.9, G 3.13, A 2.37, R 1.41, Y 3.24
L7: D 2.13, H 1.31, G 2.13, N 2.5, T 2.46, M 3.54, Q 2.41, S 1.78, V 2.36, R 2.13, A 2.37, P 2.31, E 1.02, C 1.97, F 2.12
K16: G 3.19, F 3.89, N 2.96, D 1.76, I 1.93, E 2.45, A 2.39, L 1.48, Q 3.29, C 2.44, V 2.29, W 2.25, M 2.58, T 2.71
L14: Y 3.26, S 3.43, V 2.93, W 2.22, Q 2.24, I 4.47, K 1.88, A 1.68, C 2.35, H 2.74, M 1.49, P 2.09
R1: D 2.4, P 2.85, C 2.52, N 1.64, M 3.94, Q 3.23, K 2.23, S 3.94, H 3.12, V 3.38, Y 2.99, E 2.47, L 2.02
D2: M 3.99, W 4.44, G 3.23, I 2.03, A 2.4, P 3.08, H 1.94, E 3.12, S 3.79
L22: N 1.54, E 1.93, H 1.44, G 1.5, M 3.06, Q 2.59, C 2.69, K 1.91, P 1.43, D 1.5
N15: Y 1.24, V 3.72, K 2.63, L 3.76, G 2.33, T 1.98, E 1.44, F 3.09, I 3.36, Q 5.09, D 3.27, P 1.75, A 3.2
N12: T 2.2, L 2.99, V 2.37, H 2.28, E 1.84, Q 1.45, R 1.79, P 2.26, S 1.77, D 4.53, C 3.35, F 2.97, M 1.84, K 2.79
E23: Y 1.36, P 2.27, W 3.37, K 2.65, F 2.3, C 2.07, H 2.39, A 2.38, G 2.23, Q 4.6, N 3.12
T13: E 1.7, R 2.35, L 2.33, Y 2.79, S 2.09, K 1.55, H 2.02, I 2.04, C 2.26, N 2.28
I4: L 2.59, F 3.05, D 2.67, H 2.44, C 2.22, Q 2.12, E 1.44, T 2.24, N 2.4, K 2.37, V 3.39, R 2.41
K21: N 1.61, T 2.06, S 1.73, P 1.33, Q 4.24, M 1.69, G 1.97, Y 2.5, C 1.39, R 2.88, A 2.6, I 2.1, E 1.73
R10: W 2.52, V 1.86, M 3.3, P 2.71, A 2.67, N 4.43, H 3.54, Y 2.21, I 4.62, L 2.43, Q 3.82, C 3.31
V19: W 3.62, L 3.2, H 3.85, G 1.6, T 1.04, D 2.58, I 1.67, N 1.89, A 3.74
A6: R 2.92, E 1.64, C 3.07, G 3.12, F 3.71, L 3.11, Y 1.73, H 3.17, T 2.35, D 1.41, P 3.8, N 2.69, S 3.05
A18: P 1.82, F 4.02, C 2.83, R 1.07, V 3.7, D 2.78, W 2.66, Q 2.02, Y 3.01, H 2.23, I 3.66, E 2.7
E5: M 3.42, S 1.83, C 2.39, P 3.06, R 2.97, Y 2.23, V 1.97, A 2.3, H 2.47, I 2.84
L11: D 3.27, R 1.89, K 2.96, F 2.72, Q 2.56, T 2.52, S 3.62, P 2.84, W 2.05, Y 2.67, H 1.6, C 3.62, E 1.84
I24: D 1.52, P 1.71, C 3.03, G 1.13, T 2.21, R 1.5, W 1.66, K 1.87, E 1.36, Q 1.75, S 1.91, L 2.75, V 2.45, Y 1.29, F 2.04, N 1.63, A 1.18, M 2.39
A3: I 2.5, V 3.3, E 1.48, M 3.33, C 3.99, Q 2.95, K 2.7
C17: V 4.14, M 1.63, I 3.57, A 1.16, P 1.07, Y 3.7, R 1.78, E 2, D 3.14, L 2.35, Q 1.42, K 2.36, S 2.17, T 3.57, H 4.06, N 1.83
